test system: Escherichia coli TOP10; assay: shrunken log2 fold change of peptide-encoding DNA abundance (4.5 h post-induction vs induction); higher = less antimicrobial activity (less host growth inhibition); conditions: time post-induction: 4.5 h; library: site-saturation at positions 5, 18, 19, 20
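Note: peptides expressed intracellularly from a pBAD plasmid library in pooled LB shake-flask culture, induced with 0.3% L-arabinose, DNA abundance read by NGS, three biological replicates, DESeq2 with apeglm shrinkage.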

Sequence	shrunken log2 fold change
RRIRYRPPRLPRPRPRPNTFPRP	-1.24
RRIRARPPRLPRPRPRPHSFPRP	0.00388
RRIRTRPPRLPRPRPRPDNHPRP	-1.07
RRIRNRPPRLPRPRPRPGVNPRP	0.0306
RRIRMRPPRLPRPRPRPRHPPRP	0.617
RRIRYRPPRLPRPRPRPYMLPRP	-1.3
RRIRCRPPRLPRPRPRPRVWPRP	0.747
RRIRMRPPRLPRPRPRPHKMPRP	0.193
RRIRTRPPRLPRPRPRPGEFPRP	-0.0751
RRIRFRPPRLPRPRPRPWFTPRP	-0.574
RRIRSRPPRLPRPRPRPVINPRP	-0.106
RRIRMRPPRLPRPRPRPYMFPRP	-0.493
RRIRKRPPRLPRPRPRPPQKPRP	0.682
RRIRPRPPRLPRPRPRPLWAPRP	0.343
RRIRTRPPRLPRPRPRPERLPRP	-0.0511
RRIRPRPPRLPRPRPRPKTFPRP	-0.322
RRIRWRPPRLPRPRPRPTLLPRP	0.104
RRIRHRPPRLPRPRPRPIPSPRP	-0.274
RRIRARPPRLPRPRPRPMHFPRP	0.122
RRIRFRPPRLPRPRPRPKCLPRP	0.049
RRIRVRPPRLPRPRPRPQMEPRP	-0.0589
RRIRRRPPRLPRPRPRPGKHPRP	-0.0322
RRIRGRPPRLPRPRPRPCEEPRP	0.742
RRIRRRPPRLPRPRPRPNCNPRP	-0.0828
RRIRCRPPRLPRPRPRPKFFPRP	0.0952

Sequence	shrunken log2 fold change
RRIRSRPPRLPRPRPRPRLMPRP	0.198
RRIRNRPPRLPRPRPRPDIYPRP	-0.265
RRIRTRPPRLPRPRPRPIVHPRP	-0.0385
RRIRIRPPRLPRPRPRPDGKPRP	-0.000921
RRIRFRPPRLPRPRPRPHQYPRP	-0.88
RRIRNRPPRLPRPRPRPNWYPRP	-0.647
RRIRVRPPRLPRPRPRPCIQPRP	-0.00992
RRIRPRPPRLPRPRPRPTEGPRP	-0.0468
RRIRSRPPRLPRPRPRPGREPRP	0.325
RRIRGRPPRLPRPRPRPEDHPRP	0.536
RRIRGRPPRLPRPRPRPTAGPRP	1.15
RRIRARPPRLPRPRPRPFQVPRP	0.0694
RRIRTRPPRLPRPRPRPKRNPRP	0.366
RRIRARPPRLPRPRPRPICNPRP	0.176
RRIRLRPPRLPRPRPRPEDEPRP	0.00911
RRIRYRPPRLPRPRPRPWCFPRP	-0.369
RRIRTRPPRLPRPRPRPHQGPRP	-0.0325
RRIRHRPPRLPRPRPRPFQNPRP	-0.195
RRIRWRPPRLPRPRPRPAHRPRP	0.49
RRIRYRPPRLPRPRPRPHPFPRP	-1.3
RRIRPRPPRLPRPRPRPVGSPRP	0.261
RRIRDRPPRLPRPRPRPCFYPRP	-0.167
RRIRLRPPRLPRPRPRPGVEPRP	0.0194
RRIRRRPPRLPRPRPRPWGFPRP	0.315
RRIRVRPPRLPRPRPRPFKSPRP	0.0446

Sequence	shrunken log2 fold change
RRIRWRPPRLPRPRPRPPAHPRP	0.498
RRIRLRPPRLPRPRPRPPVDPRP	0.539
RRIRARPPRLPRPRPRPESWPRP	1.49
RRIRCRPPRLPRPRPRPTSVPRP	0.0631
RRIRNRPPRLPRPRPRPQFEPRP	-0.013
RRIRGRPPRLPRPRPRPKAVPRP	0.89
RRIRRRPPRLPRPRPRPEQAPRP	-0.0266
RRIRYRPPRLPRPRPRPAWHPRP	-0.249
RRIRCRPPRLPRPRPRPIQWPRP	-0.263
RRIRYRPPRLPRPRPRPCEDPRP	-0.371
RRIRYRPPRLPRPRPRPPVRPRP	0.0631
RRIRKRPPRLPRPRPRPNKGPRP	0.0232
RRIRVRPPRLPRPRPRPTYMPRP	-0.445
RRIRGRPPRLPRPRPRPPYKPRP	0.18
RRIRGRPPRLPRPRPRPTDTPRP	0.656
RRIRDRPPRLPRPRPRPNYQPRP	-0.187
RRIRQRPPRLPRPRPRPDNWPRP	-0.117
RRIRERPPRLPRPRPRPIYDPRP	-0.137
RRIRCRPPRLPRPRPRPNEHPRP	-0.553
RRIRKRPPRLPRPRPRPYADPRP	-0.0355
RRIRFRPPRLPRPRPRPKALPRP	0.191
RRIRVRPPRLPRPRPRPHDRPRP	0.068
RRIRERPPRLPRPRPRPCCEPRP	-0.366
RRIRYRPPRLPRPRPRPDQRPRP	-0.24
RRIRARPPRLPRPRPRPICLPRP	0.425

Sequence	shrunken log2 fold change
RRIRNRPPRLPRPRPRPTMTPRP	0.149
RRIRFRPPRLPRPRPRPVWNPRP	-0.0763
RRIRIRPPRLPRPRPRPWDGPRP	-0.094
RRIRHRPPRLPRPRPRPELFPRP	0.458
RRIRGRPPRLPRPRPRPMSHPRP	0.225
RRIRFRPPRLPRPRPRPRTNPRP	-0.179
RRIRHRPPRLPRPRPRPRAVPRP	0.518
RRIRMRPPRLPRPRPRPGTRPRP	0.675
RRIRNRPPRLPRPRPRPWRWPRP	0.0867
RRIRQRPPRLPRPRPRPSTYPRP	-0.884
RRIRDRPPRLPRPRPRPIVQPRP	-0.267
RRIRWRPPRLPRPRPRPMERPRP	-0.0173
RRIRPRPPRLPRPRPRPALEPRP	0.313
RRIRGRPPRLPRPRPRPMVLPRP	-0.0349
RRIRFRPPRLPRPRPRPGHWPRP	0.0649
RRIRARPPRLPRPRPRPHIYPRP	-0.805
RRIRGRPPRLPRPRPRPDLMPRP	0.878
RRIRPRPPRLPRPRPRPWSSPRP	-0.977
RRIRDRPPRLPRPRPRPHNHPRP	-0.612
RRIRSRPPRLPRPRPRPEIWPRP	0.456
RRIRFRPPRLPRPRPRPCDQPRP	-0.0178
RRIRSRPPRLPRPRPRPAVGPRP	0.391
RRIRLRPPRLPRPRPRPTMEPRP	0.274
RRIRLRPPRLPRPRPRPYNFPRP	-0.0404
RRIRARPPRLPRPRPRPLCKPRP	0.326

Sequence	shrunken log2 fold change
RRIRYRPPRLPRPRPRPREAPRP	0.469
RRIRDRPPRLPRPRPRPYYKPRP	-0.195
RRIRRRPPRLPRPRPRPQMVPRP	-0.0843
RRIRTRPPRLPRPRPRPNPCPRP	0.0479
RRIRYRPPRLPRPRPRPSRIPRP	0.0535
RRIRTRPPRLPRPRPRPYWQPRP	-0.435
RRIRRRPPRLPRPRPRPKSVPRP	0.0439
RRIRARPPRLPRPRPRPLPWPRP	0.51
RRIRVRPPRLPRPRPRPVYRPRP	0.132
RRIRKRPPRLPRPRPRPLSLPRP	-0.131
RRIRQRPPRLPRPRPRPSYPPRP	-0.857
RRIRYRPPRLPRPRPRPHAAPRP	-0.211
RRIRDRPPRLPRPRPRPRCLPRP	-0.0519
RRIRTRPPRLPRPRPRPIMMPRP	-0.267
RRIRWRPPRLPRPRPRPWQMPRP	0.0308
RRIRWRPPRLPRPRPRPYFMPRP	-0.834
RRIRFRPPRLPRPRPRPYCGPRP	-0.306
RRIRTRPPRLPRPRPRPHGRPRP	0.0169
RRIRVRPPRLPRPRPRPASQPRP	0.128
RRIRYRPPRLPRPRPRPWACPRP	-0.263
RRIRQRPPRLPRPRPRPRAWPRP	0.123
RRIRDRPPRLPRPRPRPGHYPRP	0.0149
RRIRVRPPRLPRPRPRPKQAPRP	0.243
RRIRDRPPRLPRPRPRPVRGPRP	1
RRIRMRPPRLPRPRPRPNKDPRP	0.0301

Sequence	shrunken log2 fold change
RRIRCRPPRLPRPRPRPPLPPRP	0.539
RRIRQRPPRLPRPRPRPEQMPRP	-0.00448
RRIRWRPPRLPRPRPRPQSCPRP	0.0975
RRIRLRPPRLPRPRPRPPMHPRP	0.363
RRIRTRPPRLPRPRPRPEIIPRP	0.095
RRIRNRPPRLPRPRPRPMMCPRP	-0.0344
RRIRDRPPRLPRPRPRPSRGPRP	0.386
RRIRCRPPRLPRPRPRPTKLPRP	-0.132
RRIRYRPPRLPRPRPRPWMFPRP	-0.273
RRIRARPPRLPRPRPRPVNAPRP	-0.0521
RRIRWRPPRLPRPRPRPDEYPRP	-0.0763
RRIRNRPPRLPRPRPRPTPKPRP	0.222
RRIRHRPPRLPRPRPRPVGMPRP	-0.63
RRIRVRPPRLPRPRPRPHWCPRP	-0.144
RRIRQRPPRLPRPRPRPLSNPRP	-0.109
RRIRFRPPRLPRPRPRPRCQPRP	0.24
RRIRMRPPRLPRPRPRPYIRPRP	-0.13
RRIRTRPPRLPRPRPRPFIEPRP	-0.553
RRIRLRPPRLPRPRPRPTTVPRP	-0.175
RRIRVRPPRLPRPRPRPNFHPRP	-0.115
RRIRLRPPRLPRPRPRPYRIPRP	-0.796
RRIRVRPPRLPRPRPRPWCPPRP	0.0662
RRIRSRPPRLPRPRPRPSWGPRP	-0.114
RRIRFRPPRLPRPRPRPKKLPRP	0.173
RRIRGRPPRLPRPRPRPYDQPRP	0.0878

Reference: the supplement of paper PMC9112550, “Optimization of the antimicrobial peptide Bac7 by deep mutational scanning” (BMC Biology, 2022)
